{"source": "paper PMC8413895", "molecular_target": "HIV-1 Env variant ADA.CM, trimer on virions (HIV-1 (ADA.CM))", "data": [{"substance": "4E10 Fab (parental, wild-type)", "values": [{"measurement": "IC50 of neutralization of ADA.CM pseudovirus, TZM-bl assay", "value": 2.7, "unit": "µg/mL"}]}]}
